The chains are these.
B1: mouse XXYLT1 (Xylosideα1–3 Xylosyltransferase), soluble domain S43–D392 after limited proteolysis with trypsin (enzyme, UniProt Q3U4G3 93-391, looked up)
chain: VVPVDYHLLMMFTKAEHNAPLQAKARVALSSLLRLAKFEAHEVLNLHFVSEEASREVAKALLRELLPPAAGFKCKVIFHDVAVLTDKLFPVVEAMQKYFSAGSGTYYSDSIFFLSVAMHQIMPKEIPRIIQLDLDLKYKTNIRELFEEFDNFLPGAVIGIAREMQPVYRHTFWQFRHENPKTRVGDPPPEGLPGFNSGVMLLNLEAMRQSPLYSHLLEPSWVQQLADKYHFRGHLGDQDFFTMIGMEHPELFHVLDCTWNRQLCTWWRDHGYSDVFQAYFRCEGHVKIYHGNCNTPIPE

Data set [1] has as its target B1. In words: SEC. (In general: SEC sorts molecules by how far they enter the pores of the column.)
Data set [2] concerns the target B1. As to the kind of experiment: crystal structure.
The data set “crystal structure” concerns the molecule itself. In words: crystal structure.

The term stoichiometry N denotes a count of units in the complex or per binding partner.

As for VDGDQCESNPCLNGGSCKDDINSYECWCPFGFEGKNCEL (domain or fragment, Xyl-Glc disaccharide on Ser53) [human factor IX (hFA9) EGF repeat modified with the Xyl-Glc disaccharide], the binding result in data set [1] is recorded as “binds”.
As for VDGDQCESNPCLNGGSCKDDINSYECWCPFGFEGKNCEL (domain or fragment, Xyl-Xyl-Glc trisaccharide on Ser53) [human factor IX (hFA9) EGF repeat with the Xyl-Xyl-Glc trisaccharide (product of XXYLT1)], the binding result in data set [2] is given as “binds”.
In the case of B1, the “stoichiometry N” value in the data set “crystal structure” came to 2.

The values are drawn from paper PMC4618232 (Nature chemical biology, 2015).
